From EP2717940B1

Tests used:
[1] = target: chemokine (C-C motif) receptor 5 (CCR5) (human) (UniProt P51681); experiment: cell-based or functional assay
[2] = target: chemokine (C-C motif) receptor 5 (CCR5) (human) (UniProt P51681); experiment: in vitro depletion: blood of a healthy donor passed through a column with biotinylated RANTES coupled matrix, flow cytometry for CCR1, 3 or 5-expressing cells
[3] = target: T1, chemokine (C-C motif) receptor 1 (CCR1) (human) (UniProt P32246); experiment: as above
T1 sequence (looked up): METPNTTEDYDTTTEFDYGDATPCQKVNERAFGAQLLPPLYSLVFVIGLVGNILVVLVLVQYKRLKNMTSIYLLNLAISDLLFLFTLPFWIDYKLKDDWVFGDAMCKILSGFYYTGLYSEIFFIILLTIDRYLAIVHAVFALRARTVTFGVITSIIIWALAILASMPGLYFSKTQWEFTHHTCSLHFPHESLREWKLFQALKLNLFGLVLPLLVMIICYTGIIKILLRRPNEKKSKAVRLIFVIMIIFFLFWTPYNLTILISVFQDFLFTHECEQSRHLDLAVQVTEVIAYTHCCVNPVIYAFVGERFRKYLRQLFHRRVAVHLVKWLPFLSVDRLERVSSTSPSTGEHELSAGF

[4] = target: T2, chemokine (C-C motif) receptor 3 (CCR3) (human) (UniProt P51677); experiment: as above
T2 sequence (looked up): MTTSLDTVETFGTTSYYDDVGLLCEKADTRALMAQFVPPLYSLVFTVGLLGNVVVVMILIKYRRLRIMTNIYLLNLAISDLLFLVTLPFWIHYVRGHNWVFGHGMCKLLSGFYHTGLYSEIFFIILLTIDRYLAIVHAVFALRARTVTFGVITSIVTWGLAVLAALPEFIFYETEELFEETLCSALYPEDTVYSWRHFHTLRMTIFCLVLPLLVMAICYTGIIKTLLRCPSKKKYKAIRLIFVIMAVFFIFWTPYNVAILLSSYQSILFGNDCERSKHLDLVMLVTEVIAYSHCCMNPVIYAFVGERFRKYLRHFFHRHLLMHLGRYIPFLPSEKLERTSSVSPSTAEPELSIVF

[5] = target: chemokine (C-C motif) receptor 2 (CCR2) on peripheral blood cells (human) (UniProt P41597); experiment: flow cytometry, biotinylated chemokine (1 µM) on blood cells of adiposis dolorosa patients, CD19 positive cells, detected with fluorophore conjugated streptavidin
Chain of chemokine (C-C motif) receptor 2 (CCR2) on peripheral blood cells (human) (P41597 whole entry): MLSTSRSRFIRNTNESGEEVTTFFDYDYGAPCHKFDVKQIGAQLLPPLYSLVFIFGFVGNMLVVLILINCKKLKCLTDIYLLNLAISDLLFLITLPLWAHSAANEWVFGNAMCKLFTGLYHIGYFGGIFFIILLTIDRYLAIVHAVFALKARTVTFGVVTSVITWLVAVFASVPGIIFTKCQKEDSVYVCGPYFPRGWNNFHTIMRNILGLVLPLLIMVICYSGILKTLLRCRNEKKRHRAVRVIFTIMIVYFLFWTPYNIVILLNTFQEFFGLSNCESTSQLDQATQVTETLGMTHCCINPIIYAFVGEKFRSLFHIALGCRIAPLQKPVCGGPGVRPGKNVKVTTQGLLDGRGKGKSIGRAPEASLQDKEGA

[6] = target: chemokine (C-C motif) receptor 2 (CCR2) on peripheral blood cells (human) (UniProt P41597); experiment: in vitro depletion: blood of three healthy donors passed through a column with bMCP-1 coupled streptavidin Sepharose matrix, flow cytometry before and after
hCCR2b (human) = hCCR2b (human) (UniProt P41597); experiment: cell-based or functional assay
Chain of hCCR2b (human) (P41597 other isoform, or with tags, fused parts or gaps): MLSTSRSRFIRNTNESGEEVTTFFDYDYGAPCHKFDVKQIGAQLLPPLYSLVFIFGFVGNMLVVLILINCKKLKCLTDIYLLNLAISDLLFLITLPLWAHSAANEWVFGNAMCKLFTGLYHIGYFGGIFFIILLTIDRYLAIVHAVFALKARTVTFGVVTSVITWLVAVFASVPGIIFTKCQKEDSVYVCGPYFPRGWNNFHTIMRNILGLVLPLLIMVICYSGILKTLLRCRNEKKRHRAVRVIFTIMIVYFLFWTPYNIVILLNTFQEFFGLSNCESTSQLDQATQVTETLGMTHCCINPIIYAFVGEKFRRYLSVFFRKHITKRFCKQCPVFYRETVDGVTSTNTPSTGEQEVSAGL

Chain of UniProt P13501 (P13501 other isoform, or with tags, fused parts or gaps): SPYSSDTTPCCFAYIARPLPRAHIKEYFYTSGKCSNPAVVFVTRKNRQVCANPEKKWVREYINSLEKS
Chain of chemokine (C-C motif) receptor 5 (CCR5) (human) (P51681 whole entry): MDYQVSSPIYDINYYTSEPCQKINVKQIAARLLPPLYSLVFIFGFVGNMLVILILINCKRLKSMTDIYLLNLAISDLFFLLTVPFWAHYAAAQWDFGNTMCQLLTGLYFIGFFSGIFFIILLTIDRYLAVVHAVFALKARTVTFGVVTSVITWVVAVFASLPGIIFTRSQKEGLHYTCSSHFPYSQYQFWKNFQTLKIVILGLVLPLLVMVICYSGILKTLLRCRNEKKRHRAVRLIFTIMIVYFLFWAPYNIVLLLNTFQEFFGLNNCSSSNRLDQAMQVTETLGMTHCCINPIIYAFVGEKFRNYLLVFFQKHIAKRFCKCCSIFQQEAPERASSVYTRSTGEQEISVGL

biotinRANTES (CCL5): RANTES derivatised at the ε-amino side chain functionality of Lys(67) with Biotin (TFA salt) (from UniProt P13501 24-91) (ligand)
EC50, agonist activity in an Aequorin assay [1]: 0.5 nM
reduction of chemokine receptor-expressing cells by the column [2]: 20%
reduction of chemokine receptor-expressing cells by the column [3]: 20%
reduction of chemokine receptor-expressing cells by the column [4]: 20%

biotinylated MCP1 (bMCP1) (from UniProt P13500 24-99) (ligand)
percent of B cells that bind [5]: 65%
remaining levels of monocytes after column passage [6]: 20 to 30%

recombinant native MCP-1 (from UniProt P13500 24-99) (ligand)
EC50, agonist activity in an Aequorin assay (hCCR2b (human)): 3.1 nM

recombinant native MCP-2 (from UniProt P80075 24-99) (ligand)
EC50, activity (partial agonist) in an Aequorin assay (hCCR2b (human)): 23.5 nM
